Results reported in publication PMC9692336.

Columns and labels:
[1] = molecular target: platelet glycoprotein receptor Ib (UniProt P07359)
[2] = molecular target: platelet glycoprotein receptor Ib (UniProt P07359); remark: listed apart in the source

VWF:RCo activity (ristocetin co-factor assay, aggregation of fixed platelets) in factor VIII-deficient plasmas after addition of polyP65 (2.5 and 7.1 µM) [1]: 2 fold
VWF:RCo activity in factor VIII-deficient plasmas after addition of purified recombinant factor VIII [2]: 4 fold
Substance: von Willebrand factor in plasma (from UniProt P04275 764-2813) (natural protein)
